The source of these data is patent publication US20180207269A1.

In assay [1] the target is CD166 (activated leukocyte cell adhesion molecule, ALCAM) on human cells (human) (UniProt Q13740). Description: flow cytometry, Jurkat cells pre-incubated with J4-81, then ILT3Fc-FITC. A general note: Flow cytometry measures light scatter and fluorescence of single cells or particles in a stream.
Assay [2] shares this target. Description: flow cytometry, CD3+ T cells triggered with PWM (0.05ug/ml) in the presence of ILT3Fc (50 ug/mL), stained with ILT3Fc-FITC.
For assay [3] the target is unchanged. The assay is described as follows: flow cytometry, Jurkat cells nucleofected with control vector, double staining anti-CD166 APC + ILT3Fc-FITC.
For assay [4] the target is unchanged. The assay is described as follows: flow cytometry, H9 cells with CD166 knocked down by CD166 shRNA adeno-virus (Adeno-siCD166) for 7 days, double staining anti-CD166 PE + ILT3Fc-FITC.
For assay [5] the target is unchanged. Description: flow cytometry, CD4-gated T helper cells of a healthy donor (low or no ILT3L).
Assay [6] has the same target. The assay is described as follows: flow cytometry, H9 cells infected with control adeno-virus (Adeno-Control) for 7 days, double staining anti-CD166 PE + ILT3Fc-FITC.
The target is the same in assay [7]. The assay is described as follows: flow cytometry, CD166 KO H9 cells (CD166 gene knocked out: control cells without the target), double staining anti-CD166-PE + ILT3.Fc-FITC.
Assay [8] shares this target. The assay is described as follows: flow cytometry, Wild-Type H9 cells, double staining anti-CD166-PE + ILT3.Fc-FITC.
The target is the same in assay [9]. Description: flow cytometry, CD3+ T cells triggered with CD3/CD28 (5ug/ml, 1ug/ml) w/o ILT3Fc, stained with ILT3Fc-FITC.
The target is the same in assay [10]. Description: flow cytometry, CD3-gated T cells of a healthy donor (low or no ILT3L).
Assay [11] has the same target. Description: flow cytometry, CD3+ T cells, Control Treatment, cultured with ILT3Fc (50 ug/mL), stained with ILT3Fc-FITC.
Assay [12] has the same target. Description: flow cytometry, Jurkat cells nucleofected with CD166 over-expression plasmid, double staining anti-CD166 APC + ILT3Fc-FITC.
Assay [13] shares this target. The assay is described as follows: cell-based or functional assay.
Assay [14] has the same target. The assay is described as follows: flow cytometry, CD3+ T cells triggered with PWM (0.05ug/ml) w/o ILT3Fc, stained with ILT3Fc-FITC.
Assay [15] has the same target. The assay is described as follows: flow cytometry, ILT3Fc-FITC on control-virus infected H9 cells.
Assay [16] has the same target. The assay is described as follows: flow cytometry, CD3+ T cells, Control Treatment, cultured w/o ILT3Fc, stained with ILT3Fc-FITC.
Assay [17] has the same target. The assay is described as follows: flow cytometry, CD3+ T cells triggered with CD3/CD28 (5ug/ml, 1ug/ml) in the presence of ILT3Fc (50 ug/mL), stained with ILT3Fc-FITC.
Assay [18] has the same target. Description: flow cytometry, ILT3Fc-FITC on H9 cells with CD166 knocked down by shRNA adeno-virus.
The target is the same in assay [19]. The assay is described as follows: flow cytometry, Jurkat cells pre-incubated with CD6-Fc, then ILT3Fc-FITC.
For assay [20] the target is unchanged. The assay is described as follows: flow cytometry, Jurkat cells pre-incubated with CD166-Fc, then ILT3Fc-FITC.

Consider anti-CD166 mAb J4-81 (antibody), for which, in assay [1], the percent inhibition of ILT3Fc-FITC binding turned out to be 28%.
Consider “ILT3Fc (water-soluble recombinant protein: extracellular domain of human ILT3 affixed to the Fc portion of an immunoglobulin) (from UniProt Q8NHJ6 22-259; P01857 104-330) (Fc fusion)”, for which the % cells stained with ILT3Fc-FITC came to 15.2% in [2]; 26.9% in assay [9]; 0.8% in assay [11]; 23.2% in [14]; 1.08% in [16]; 20.4% in assay [17]. Further, the % cells in lower left quadrant (CD166- / ILT3Fc-FITC-) turned out to be 30.6% in assay [3]; 50% in assay [4]; 6.33% in assay [6]; 96.5% in [7]; 3.57% in assay [8]; 13.4% in [12]. For the same molecule, the % cells in lower right quadrant (CD166- / ILT3Fc-FITC+) worked out at 1.08% in assay [3]; 5.8% in assay [4]; 0.15% in assay [6]; 2.94% in [7]; 0.03% in assay [8]; 1.08% in [12]. In addition, the % cells in upper left quadrant (CD166+ / ILT3Fc-FITC-) in assay [3] came to 58%; in assay [4], 26.7%; in assay [6], 47%; in [7], 0.1%; in assay [8], 22.3%; in assay [12] it was 66.3%. For the same molecule, the % cells in upper right quadrant (CD166+ / ILT3Fc-FITC+) turned out to be 10.2% in [3]; 14.5% in [4]; 46.5% in assay [6]; 0.43% in [7]; 74.1% in assay [8]; 19.2% in assay [12]. Also, the values for the percent ILT3Fc binding in assay [5] and in assay [10] were 1% and 12%, respectively. This molecule also gave an inhibition of growth of tumor cell lines at 72 hours in [13] of 50 to 90%. Further, the values for the percent of cells binding ILT3Fc in assay [15] and in [18] were 46% and below 20%, respectively.

B1: human CD6-Fc (Fc fusion, UniProt P30203 25-398, looked up, not shown: a dimerising Fc or GST)
chain: DQLNTSSAESELWEPGERLPVRLTNGSSSCSGTVEVRLEASWEPACGALWDSRAAEAVCRALGCGGAEAASQLAPPTPELPPPPAAGNTSVAANATLAGAPALLCSGAEWRLCEVVEHACRSDGRRARVTCAENRALRLVDGGGACAGRVEMLEHGEWGSVCDDTWDLEDAHVVCRQLGCGWAVQALPGLHFTPGRGPIHRDQVNCSGAEAYLWDCPGLPGQHYCGHKEDAGAVCSEHQSWRLTGGADRCEGQVEVHFRGVWNTVCDSEWYPSEAKVLCQSLGCGTAVERPKGLPHSLSGRMYYSCNGEELTLSNCSWRFNNSNLCSQSLAARVLCSASRSLHNLSTPEVPASVQTVTIESSVTVKIENKESRE
In turn, B1 yielded a percent inhibition of ILT3Fc-FITC binding in [19] of 49%.

B2: human CD166Fc (Fc fusion, UniProt Q13740 28-526, looked up, not shown: a dimerising Fc or GST)
chain: WYTVNSAYGDTIIIPCRLDVPQNLMFGKWKYEKPDGSPVFIAFRSSTKKSVQYDDVPEYKDRLNLSENYTLSISNARISDEKRFVCMLVTEDNVFEAPTIVKVFKQPSKPEIVSKALFLETEQLKKLGDCISEDSYPDGNITWYRNGKVLHPLEGAVVIIFKKEMDPVTQLYTMTSTLEYKTTKADIQMPFTCSVTYYGPSGQKTIHSEQAVFDIYYPTEQVTIQVLPPKNAIKEGDNITLKCLGNGNPPPEEFLFYLPGQPEGIRSSNTYTLTDVRRNATGDYKCSLIDKKSMIASTAITVHYLDLSLNPSGEVTRQIGDALPVSCTISASRNATVVWMKDNIRLRSSPSFSSLHYQDAGNYVCETALQEVEGLKKRESLTLIVEGKPQIKMTKKTDPSGLSKTIICHVEGFPKPAIQWTITGSGSVINQTEESPYINGRYYSKIIISPEENVTLTCTAENQLERTVNSLNVSAISIPEHDEADEISDENREKVNDQA
Turning to B2, the percent inhibition of ILT3Fc-FITC binding in [20] was found to be 30%.
